Experimental data published in US20250313631A1 (HUMMINGBIRD BIOSCIENCE PTE, published 2025).
Positions count from the first letter of the chain named. Read-outs that look alike come from different tables or passages of the source.

B1: anti-VISTA clone V4-C28 IgG1 (antibody, V domains shown)
VH: QVQLQESGPGLVKPSDTLSLTCTVSGYSITSDYTWNWIRQTPGKGLEWIGHITYSGSVSYNPSLRSRVTISRDTSKNQFSLKLSSVTAADTATYSCARALYYPWYFDVWGTGTTVTVSS
VL: EIVLTQSPATLSLSPGERATLSCRASSSVGYIHWYQQKPGQAPRPLIYATSYRATGIPARFSGSGSGTDNTLTISSLEPEDSAVYYCQQWSSYPPITFGGGTKLEVKR
B2: anti-VISTA clone V4-C30 IgG1 (antibody, V domains shown)
VH: B1 VH
VL: B1 VL with S51Y

How the values were obtained:
[1] = molecular target: T1, recombinant human VISTA (His-tagged) (human, UniProt Q9H7M9 33-194); assay: ELISA, plate coated with human VISTA
T1 construct: bought soluble protein (Sino Biological); also called hVISTA; human VISTA polypeptide

[2] = molecular target: T1, recombinant human VISTA (His-tagged); assay: BLI (Octet), 1:1 global fit, His-tagged human VISTA captured
[3] = molecular target: T2, recombinant mouse VISTA (His-tagged) (mouse, UniProt Q9D659 33-191); assay: BLI (Octet), 1:1 global fit, His-tagged mouse VISTA captured
T2 construct: also called murine VISTA; mVISTA
T2 sequence (looked up): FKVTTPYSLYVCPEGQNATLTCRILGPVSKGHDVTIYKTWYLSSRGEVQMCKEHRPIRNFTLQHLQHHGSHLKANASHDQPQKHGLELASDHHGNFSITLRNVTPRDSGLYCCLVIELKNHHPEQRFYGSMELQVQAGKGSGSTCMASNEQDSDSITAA

[4] = molecular target: T2, recombinant mouse VISTA (His-tagged); assay: ELISA, plate coated with mouse VISTA; unit nM from the legend paragraph 698
[5] = molecular target: T3, recombinant cynomolgus macaque VISTA (His-tagged) (cynomolgus macaque, UniProt A0A7N9IB00 33-194); assay: ELISA, plate coated with cyno VISTA
T3 construct: also called cyno VISTA; cynomolgus monkey VISTA

[6] = molecular target: T2, recombinant mouse VISTA (His-tagged); assay: BLI (Octet), 1:1 global fit, His-tagged mouse VISTA captured; remark: listed apart in the source
[7] = molecular target: T2, recombinant mouse VISTA (His-tagged); assay: ELISA, plate coated with mouse VISTA
human PD-L1 = molecular target: T4, human PD-L1 (human, UniProt Q9NZQ7 19-239); assay: BLI (Octet), His-tagged human PD-L1 on anti-Penta-HIS biosensor, antibody 500-15.6 nM
T4 construct: captured through a His tag in the BLI experiments; also called hPD-L1; B7H1/PDL-1
T4 sequence (Q9NZQ7 19-239 limits assumed): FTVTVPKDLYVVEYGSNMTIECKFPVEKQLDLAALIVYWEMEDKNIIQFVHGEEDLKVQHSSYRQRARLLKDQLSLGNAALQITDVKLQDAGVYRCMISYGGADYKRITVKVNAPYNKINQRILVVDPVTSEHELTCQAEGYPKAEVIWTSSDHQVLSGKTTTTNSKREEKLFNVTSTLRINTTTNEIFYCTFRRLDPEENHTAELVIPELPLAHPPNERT
Protocol: Finally, the biosensors were incubated for 120 sec in PBS pH 7.2 to obtain the dissociation curves. Kinetic and affinity constants were calculated by global fitting of the association and dissociation data to a 1:1 binding model.

[8] = molecular target: T1, recombinant human VISTA (His-tagged); assay: ELISA, plate coated with human VISTA; unit nM from the legend paragraph 698
[9] = molecular target: T1, recombinant human VISTA (His-tagged); assay: ELISA, plate coated with human VISTA; unit nM from the legend paragraph 697
[10] = molecular target: T5, recombinant rat VISTA (His-tagged) (rat, UniProt A0ABK0L5H3 33-192); assay: ELISA, plate coated with rat VISTA
T5 sequence: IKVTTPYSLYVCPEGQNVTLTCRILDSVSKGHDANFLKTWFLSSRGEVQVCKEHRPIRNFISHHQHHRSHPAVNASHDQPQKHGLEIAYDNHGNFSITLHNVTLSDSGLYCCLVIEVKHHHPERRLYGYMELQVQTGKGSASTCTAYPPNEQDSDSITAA

human B7H7 [11] = molecular target: T6, human B7H7 (human, UniProt Q9UM44 23-344); assay: ELISA, plate coated with the antigen
T6 construct: also called HHLA2
T6 sequence (looked up): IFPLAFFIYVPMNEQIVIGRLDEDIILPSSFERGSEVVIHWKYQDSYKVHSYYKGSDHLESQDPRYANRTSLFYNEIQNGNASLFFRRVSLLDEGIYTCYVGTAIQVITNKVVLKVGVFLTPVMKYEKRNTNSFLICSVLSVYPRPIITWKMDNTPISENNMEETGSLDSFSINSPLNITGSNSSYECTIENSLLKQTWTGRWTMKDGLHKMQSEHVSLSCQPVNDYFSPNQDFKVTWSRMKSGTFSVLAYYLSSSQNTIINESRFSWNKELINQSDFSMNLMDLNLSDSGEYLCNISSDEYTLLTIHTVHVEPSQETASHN

human B7H6 [12] = molecular target: T7, human B7H6 (human, UniProt Q68D85 25-262); assay: ELISA, plate coated with the antigen
T7 construct: also called NCR3LG1
T7 sequence (looked up): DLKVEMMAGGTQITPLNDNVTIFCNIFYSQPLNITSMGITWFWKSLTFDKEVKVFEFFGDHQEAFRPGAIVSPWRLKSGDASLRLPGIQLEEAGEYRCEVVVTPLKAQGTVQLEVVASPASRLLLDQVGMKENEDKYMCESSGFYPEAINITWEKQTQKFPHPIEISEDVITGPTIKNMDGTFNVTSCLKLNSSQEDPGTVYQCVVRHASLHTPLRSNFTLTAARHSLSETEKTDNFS

human PD-1 [13] = molecular target: T8, human PD-1 (human, UniProt Q15116 25-167); assay: ELISA, plate coated with the antigen
T8 sequence (Q15116 25-167 limits assumed): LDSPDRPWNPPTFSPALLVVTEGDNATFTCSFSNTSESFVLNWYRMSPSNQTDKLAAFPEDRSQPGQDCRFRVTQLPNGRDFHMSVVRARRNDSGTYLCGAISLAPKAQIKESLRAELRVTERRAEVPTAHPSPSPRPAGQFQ

human B7H3 [14] = molecular target: T9, human B7H3 (human, UniProt Q5ZPR3 29-461, limits assumed); assay: ELISA, plate coated with the antigen
T9 construct: also called CD276
T9 sequence (looked up): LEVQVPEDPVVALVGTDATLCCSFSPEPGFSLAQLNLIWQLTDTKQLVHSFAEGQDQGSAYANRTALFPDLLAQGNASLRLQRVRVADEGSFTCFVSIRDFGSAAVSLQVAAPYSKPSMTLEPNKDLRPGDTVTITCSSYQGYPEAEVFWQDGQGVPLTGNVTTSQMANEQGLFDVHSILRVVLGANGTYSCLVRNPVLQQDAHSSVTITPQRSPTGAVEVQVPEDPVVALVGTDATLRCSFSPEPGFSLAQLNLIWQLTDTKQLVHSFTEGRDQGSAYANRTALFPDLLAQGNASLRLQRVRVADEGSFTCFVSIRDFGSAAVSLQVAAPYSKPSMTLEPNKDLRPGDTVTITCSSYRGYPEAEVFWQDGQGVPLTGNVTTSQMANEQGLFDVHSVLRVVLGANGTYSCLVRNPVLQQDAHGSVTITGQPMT

human CTLA4 [15] = molecular target: T10, human CTLA4 (human, UniProt P16410 36-162); assay: ELISA, plate coated with the antigen
T10 sequence (P16410 36-162 limits assumed): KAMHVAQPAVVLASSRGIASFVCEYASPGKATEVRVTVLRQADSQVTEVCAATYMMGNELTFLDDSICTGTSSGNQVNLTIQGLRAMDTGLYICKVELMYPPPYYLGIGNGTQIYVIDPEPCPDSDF

human B7H4 [16] = molecular target: T11, human B7H4 (human, UniProt Q7Z7D3 25-258, limits assumed); assay: ELISA, plate coated with the antigen
T11 construct: also called VTCN1
T11 sequence (looked up): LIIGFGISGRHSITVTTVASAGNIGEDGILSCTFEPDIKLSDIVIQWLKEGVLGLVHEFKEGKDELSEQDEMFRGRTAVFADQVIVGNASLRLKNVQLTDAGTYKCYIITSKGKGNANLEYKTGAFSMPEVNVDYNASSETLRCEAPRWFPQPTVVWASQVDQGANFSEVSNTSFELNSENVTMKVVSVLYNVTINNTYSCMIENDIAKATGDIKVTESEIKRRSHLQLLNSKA

[17] = molecular target: T1, recombinant human VISTA (His-tagged); assay: ELISA, plate coated with human VISTA; remark: listed apart in the source
[18] = molecular target: T2, recombinant mouse VISTA (His-tagged); assay: ELISA, plate coated with mouse VISTA; unit nM from the legend paragraph 697
human B7H7 [19] = molecular target: T6, human B7H7; assay: ELISA, plate coated with the antigen; remark: listed apart in the source
human B7H6 [20] = molecular target: T7, human B7H6; assay: ELISA, plate coated with the antigen; remark: listed apart in the source
human PD-1 [21] = molecular target: T8, human PD-1; assay: ELISA, plate coated with the antigen; remark: listed apart in the source
human B7H3 [22] = molecular target: T9, human B7H3; assay: ELISA, plate coated with the antigen; remark: listed apart in the source
human CTLA4 [23] = molecular target: T10, human CTLA4; assay: ELISA, plate coated with the antigen; remark: listed apart in the source
human B7H4 [24] = molecular target: T11, human B7H4; assay: ELISA, plate coated with the antigen; remark: listed apart in the source
[25] = molecular target: T1, recombinant human VISTA (His-tagged); assay: ELISA, plate coated with human VISTA; remark: listed apart in the source

Kd [2]	koff [2]	kon [2]	Kd [3]	koff [3]	kon [3]	EC50 [4]	EC50 [5]	Kd [6]	koff [6]	kon [6]	EC50 [7]	binding result (human PD-L1)	EC50 [8]	EC50 [9]	EC50 [10]	EC50 [17]	EC50 [18]	other results	Binder
< 0.001 nM	< 1e-07 s⁻¹	507000 M⁻¹ s⁻¹	0.17 nM	8.2e-05 s⁻¹	475000 M⁻¹ s⁻¹	0.064 nM	0.0367 nM	0.489 nM	0.00025 s⁻¹	520000 M⁻¹ s⁻¹	0.0365 nM	no binding (tested: 500 nM)	0.053 nM	0.0015 nM	0.217 nM	0.0346 nM	0.0045 nM	EC50 (read off the curve) [1]: ~0.03 nM; binding result (human B7H7 [11]): no binding (tested: log -7.5 M); binding result (human B7H6 [12]): no binding (tested: log -7.5 M); binding result (human PD-1 [13]): no binding (tested: log -7.5 M); binding result (human B7H3 [14]): no binding (tested: log -7.5 M); binding result (human CTLA4 [15]): no binding (tested: log -7.5 M); binding result (human B7H4 [16]): no binding (tested: log -7.5 M)	B1
< 0.001 nM	< 1e-07 s⁻¹	593000 M⁻¹ s⁻¹	0.005 nM	2.8e-06 s⁻¹	505000 M⁻¹ s⁻¹	0.123 nM	0.0272 nM	< 0.001 nM	< 1e-07 s⁻¹	533000 M⁻¹ s⁻¹	0.0326 nM	no binding (tested: 500 nM)	0.088 nM	< 0.0007 nM	0.206 nM	0.0318 nM	0.0013 nM	binding result (human B7H7 [19]): no binding (tested: log -7.5 M); binding result (human B7H6 [20]): no binding (tested: log -7.5 M); binding result (human PD-1 [21]): no binding (tested: log -7.5 M); binding result (human B7H3 [22]): no binding (tested: log -7.5 M); binding result (human CTLA4 [23]): no binding (tested: log -7.5 M); binding result (human B7H4 [24]): no binding (tested: log -7.5 M); EC50 (read off the curve) [25]: ~0.02 nM	B2
